Source: patent US20240409638A1 (AVACTA LIFE SCIENCES, published 2024)

Legend:
[1] = molecular target: T1, human serum albumin (HSA) (human, UniProt P02768 25-609); assay: SPR, Biacore, HSA on CM5, pH 7.4; HSA-18 monomer
T1 construct: The assays used bought HSA (Sigma #A37812 in the SPR work); also called HuSA
Experimental: (§1) For the HSA binding kinetic analysis, HSA (Sigma #A37812) was immobilized on a CM5 chip surface using amine coupling in 10 mM sodium acetate (pH 5.0) (Cytvia). […] The chip surface was regenerated with 3 mM NaOH for 20 seconds at a flow rate of 20 μl/min. The kinetic data was blank subtracted and fit to a 1:1 Langmuir binding model (BIAcore evaluation software; Cytiva).
(§2) Protein was produced from Escherichia coli and characterized as described in Example 1. […] Kinetic analysis was carried out as described in Example 2.

[2] = molecular target: T1, human serum albumin (HSA); assay: SPR (Biacore) kinetics: HSA immobilised on a CM5 chip, AFFIMER as analyte, pH 7.4
Experimental: as §1, §2

T1 sequence (P02768 25-609): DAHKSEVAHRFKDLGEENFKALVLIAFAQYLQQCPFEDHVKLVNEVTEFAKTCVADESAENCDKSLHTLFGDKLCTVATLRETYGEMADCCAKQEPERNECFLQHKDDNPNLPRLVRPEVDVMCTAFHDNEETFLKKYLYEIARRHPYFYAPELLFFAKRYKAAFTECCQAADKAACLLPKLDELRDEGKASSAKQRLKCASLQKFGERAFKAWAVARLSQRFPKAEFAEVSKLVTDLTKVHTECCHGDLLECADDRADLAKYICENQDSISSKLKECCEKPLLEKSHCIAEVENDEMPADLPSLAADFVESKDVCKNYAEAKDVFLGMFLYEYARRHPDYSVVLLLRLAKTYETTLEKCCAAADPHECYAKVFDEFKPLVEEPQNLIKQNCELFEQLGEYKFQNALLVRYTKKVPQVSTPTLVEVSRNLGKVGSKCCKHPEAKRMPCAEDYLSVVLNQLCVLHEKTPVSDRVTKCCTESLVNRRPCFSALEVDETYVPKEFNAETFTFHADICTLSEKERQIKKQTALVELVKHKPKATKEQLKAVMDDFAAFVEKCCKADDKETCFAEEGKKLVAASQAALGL

Kd [1]: 1.09 nM
Kd [2]: 109 nM
koff [2]: 0.0078 s⁻¹
kon [2]: 71400 M⁻¹ s⁻¹
B1: HSA-18 (anti-serum albumin AFFIMER® polypeptide, XT monomer) (designed binder)
chain: MIPRGLSEAKPATPEIQEIVDKVKPQLEEKTNETYGKLEAVQYKTQVLADWWQAKWPHSTNYYIKVRAGDNKYMHLKVFNGPYKVHQSSGGADRVLTGYQVDKNKDDELTGF
notes: also called HSA-18 monomer
